Data as given in patent US20020099177A1 (Human Genome Sciences, published 2002).

Biological target: T1, IL-1 receptor type I (Flag-IL-1RI) (human, UniProt P14778 18-569)
T1 construct: not shown: Flag tag from pCMV-1-Flag expression vector
T1 sequence (looked up): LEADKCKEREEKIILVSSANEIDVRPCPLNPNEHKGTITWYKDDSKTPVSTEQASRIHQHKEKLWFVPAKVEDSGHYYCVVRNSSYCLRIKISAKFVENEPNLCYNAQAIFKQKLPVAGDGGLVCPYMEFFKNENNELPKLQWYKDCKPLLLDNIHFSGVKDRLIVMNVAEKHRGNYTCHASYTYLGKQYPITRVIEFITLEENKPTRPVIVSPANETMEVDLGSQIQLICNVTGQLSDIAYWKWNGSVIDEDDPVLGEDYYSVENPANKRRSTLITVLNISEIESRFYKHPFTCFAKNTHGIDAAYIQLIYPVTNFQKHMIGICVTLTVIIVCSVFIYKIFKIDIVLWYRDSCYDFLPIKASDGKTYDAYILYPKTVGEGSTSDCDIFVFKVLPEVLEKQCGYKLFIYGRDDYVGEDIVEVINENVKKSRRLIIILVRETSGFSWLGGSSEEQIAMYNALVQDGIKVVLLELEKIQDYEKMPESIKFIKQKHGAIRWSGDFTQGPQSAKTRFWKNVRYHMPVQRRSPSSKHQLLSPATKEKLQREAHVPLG
Assay: coimmunoprecipitation from transfected 293/293T cell lysates
Protocol: The total amount of DNA was kept constant. 24-36 hours after transfection, cells were lysed in 0.5 ml buffer (1% NP40, 150 mM NaCl, 50 mM Tris, 1 mM EDTA and protease inhibitors cocktail). Cell lysates were adjusted to 0.7 M NaCl and the indicated antibodies were added for 1 to 4 hours. Immune complexes were precipitated by the addition of protein-G-Sepharose (Sigma). After extensive washing, the Sepharose heads were boiled in sample buffer and the eluted proteins fractionated by SDS-PAGE. Subsequent protein immunoblotting was performed as described (Chinnaiyan, A., et al., Cell 81:505-12 (1995)).

B1: IRAK-2 (97-590) (enzyme)
chain: PEIRCPIPAFPDSVKPEKPLAASVRKAEDEQEEGQPVRMATFPGPGSSPARAHQPAFLQPPEEDAPHSLRSDLPTSSDSKDFSTSIPKQEKLLSLAGDSLFWSEADVVQATDDFNQNRKISQGTFADVYRGHRHGKPFVFKKLRETACSSPGSIERFFQAELQICLRCCHPNVLPVLGFCAARQFHSFIYPYMANGSLQDRLQGQGGSEPLPWPQRVSICSGLLCAVEYLHGLEIIHSNVKSSNVLLDQNLTPKLAHPMAHLCPVNKRSKYTMMKTHLLRTSAAYLPEDFIRVGQLTKRVDIFSCGIVLAEVLTGIPAMDNNRSPVYLKDLLLSEIPSSTASLCSRKTGVENVMAKEICQKYLEKGAGRLPEDCAEALATAACLCLRRRNTSLQEVCGSVAAVEERLRGRETLLPWSGLSEGTGSSSNTPEETDDVDNSSLDASSSMSVAPWAGAATPLLPTENGEGRLRVIVGREADSSSEACVGLEPPQDVT
notes: Truncated IRAK-2 lacking the N-terminal domain (DD); also called IRAK-2 (97-590)-MyC; mutant version of IRAK-2 lacking the first 96 amino acid residues; not shown: C-terminal Myc(-His) tag from pCDNA3-MyC-His vector
B1: no binding.
